Data from patent US20130280162A1.

Target: human uPAR on 293/uPAR cells (human) (UniProt Q03405)
Experiment: cell-based or functional assay

Chain of uPAR-lockV2 (SMB-GFD/hFc, disulphide-linked homodimer) (Fc fusion) (chain): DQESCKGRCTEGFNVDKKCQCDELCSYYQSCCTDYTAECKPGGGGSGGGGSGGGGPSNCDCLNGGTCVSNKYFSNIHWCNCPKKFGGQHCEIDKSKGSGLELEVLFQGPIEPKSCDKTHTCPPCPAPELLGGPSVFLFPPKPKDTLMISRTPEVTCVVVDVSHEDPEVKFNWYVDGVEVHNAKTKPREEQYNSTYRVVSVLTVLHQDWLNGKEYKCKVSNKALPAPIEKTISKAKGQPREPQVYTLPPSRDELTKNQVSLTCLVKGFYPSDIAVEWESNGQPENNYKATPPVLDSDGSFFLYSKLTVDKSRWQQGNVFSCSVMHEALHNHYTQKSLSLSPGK
Chain of human uPAR on 293/uPAR cells (human) (Q03405 23-305): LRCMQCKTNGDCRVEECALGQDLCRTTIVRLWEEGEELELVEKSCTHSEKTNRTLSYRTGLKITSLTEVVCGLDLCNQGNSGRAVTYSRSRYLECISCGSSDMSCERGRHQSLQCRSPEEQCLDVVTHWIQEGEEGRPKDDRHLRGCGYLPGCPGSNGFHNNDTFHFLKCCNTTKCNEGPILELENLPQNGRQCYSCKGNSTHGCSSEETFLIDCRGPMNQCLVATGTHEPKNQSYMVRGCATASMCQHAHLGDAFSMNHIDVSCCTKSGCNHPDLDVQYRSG

In the case of “uPAR-lockV2 (SMB-GFD/hFc, disulphide-linked homodimer) (Fc fusion)”, the IC50, inhibition of 293/uPAR cell adhesion to VN(1-66)/Fc^RAD (RTCA impedance) is reported as 0.59 nM.
